The values below are quoted from earlier work in patent publication US8679781B2, “In vitro peptide expression library” (Isogenica Limited, priority 2002, dated 2014).

For this data set, the target named is double stranded DNA oestrogen receptor target HRE nucleotide sequence. To be noted: fragment expressed in E. coli; similar to the parent molecule; read-out: affinity.

B1: oestrogen receptor DNA binding domain fragment (amino acids 176-282): oestrogen receptor DNA binding domain fragment (amino acids 176-282) expressed in E. coli (protein, UniProt P03372 176-282, looked up, fragment)
chain: MESAKETRYCAVCNDYASGYHYGVWSCEGCKAFFKRSIQGHNDYMCPATNQCTIDKNRRKSCQACRLRKCYEVGMMKGGIRKDRRGGRMLKHKRQRDDGEGRGEVGS
As to B1, the Kd is 500 pM.
